# Source: FireProtDB (doi:10.1021/acs.biochem.5b01204)
# Several values for one entry are separate records, joined by “and”; a condition that tells them apart may be missing. Equal entries are not always repeated.
# B1: Sliding clamp wild type, P04525 (protein)
# chain: MKLSKDTTALLKNFATINSGIMLKSGQFIMTRAVNGTTYAEANISDVIDFDVAIYDLNGFLGILSLVNDDAEISQSEDGNIKIADARSTIFWPAADPSTVVAPNKPIPFPVASAVTEIKAEDLQQLLRVSRGLQIDTIAITVKEGKIVINGFNKVEDSALTRVKYSLTLGDYDGENTFNFIINMANMKMQPGNYKLLLWAKGKQGAAKFEGEHANYVVALEADSTHDF
# Conditions: Enterobacteria phage T4, pH 7.4, Sodium Phosphate Buffer, whole UniProt chain shown; for denaturant midpoint (higher = more stable): 25 °C, Urea
protein,measurement,setting,value
B1,denaturant midpoint (higher = more stable),"CD, transition: 3, reversible: yes",2.6 M and 5.7 M
same,denaturant midpoint (higher = more stable),CD,5.8 M and 2.5 M
same,denaturant midpoint (higher = more stable),"fluorescence, transition: 3, reversible: yes",2.7 M and 5.7 M
same,denaturant midpoint (higher = more stable),fluorescence,5.9 M
same,Tm,"Thermal, DSC, reversible: no",52.3 °C
same,unfolding enthalpy (calorimetric),"Thermal, DSC, reversible: no",83.6 kcal/mol
same,unfolding enthalpy (van 't Hoff),"Thermal, DSC, reversible: no",259 kcal/mol
